Source: patent US20030175278A1

Legend:
Assay in all cases: Y2H β-galactosidase liquid culture assay (ONPG)
[1] = biological target: PS1-Loop Y2H bait (human)
[2] = biological target: PS2-Loop Y2H bait (human) (UniProt P49810)
[3] = biological target: PS1-COOH terminus Y2H bait (human)

Sequence of PS1-Loop Y2H bait (human) (P79802 273-380): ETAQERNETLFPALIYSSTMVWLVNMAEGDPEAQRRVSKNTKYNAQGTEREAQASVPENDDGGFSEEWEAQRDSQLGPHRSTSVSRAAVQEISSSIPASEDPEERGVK
Sequence of PS2-Loop Y2H bait (human) (P49810 271-361): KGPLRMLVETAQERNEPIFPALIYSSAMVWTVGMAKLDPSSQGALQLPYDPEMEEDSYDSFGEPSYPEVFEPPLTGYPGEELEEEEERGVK

Substance: near full-length ubiquilin-prey clone (FIG. 2 III, construct H without GST), M37-S595 (from UniProt Q9UMX0 37-587)
- interaction strength relative to the PS2-COOH-terminal bait [1]: 2 fold
- interaction strength relative to the PS2-COOH-terminal bait [2]: 2 fold
- fold β-galactosidase activity compared with negative-control baits [3]: > 12 fold
